Measurements taken from patent publication US20230105029A1 (CHIA TAI TIANQING PHARMACEUTICAL GROUP, published 2023).

B1: huB8G11F2B7G5E8-V1 (antibody, human IgG4 S228P, kappa, V domains shown)
VH: EVQLVQSGAEVKKPGATVKISCKASGFNIKDTYMHWVKQAPGKGLEWVGRIDPTNGYTIYASKFQGKATITADTSSNTAYMELSSLRSEDTAVYHCVSRRPWFAYWGQGTLVTVSS
VL: DIVMTQTPLSLSVTPGQPASISCRSSQSIVHSNGNTYLEWYLQKPGQSPQLLIYKVTNRFSGVPDRFSGSGSGTDFTLKISRVEAEDVGVYYCFQGSHVPYTFGQGTKLEIKR
notes: Humanized, human IgG4/kappa; also called huBSG11F2B7G5E8-V1
B2: huB8G11F2B7G5E8-V5 (antibody, human IgG4 S228P, kappa, V domains shown)
VH: EVQLVQSGAEVKKPGATVKISCKASGFNIKDTYMHWVKQAPGKGLEWVGRIDPTNGYTIYASKFQGRATITADTSSNTAYMELSSLRSEDTAVYHCVSRRPWFAYWGQGTLVTVSS
VL: DIVMTQTPLSLSVTPGQPASISCRSSQSIVHSNGNTYLEWYLQKPGQSPQLLIYKVTNRFSGVPDRFSGSGSGTDFTLKISRVEAEDVGVYYCFQGSHVPYTFGQGTKLEIKR
notes: Humanized, human IgG4/kappa; also called huBSG11F2B7G5E8-V5
B3: huB8G11F2B7G5E8-V3 (antibody, human IgG4 S228P, kappa, V domains shown)
VH: EVQLVQSGAEVKKPGATVKISCKASGFNIKDTYMHWVQQAPGKGLEWVGRIDPTNGYTIYASKFQGKATITADTSSNTAYMELSSLRSEDTAVYHCVSRRPWFAYWGQGTLVTVSS
VL: DIVMTQTPLSLSVTPGQPASISCRSSQSIVHSNGNTYLEWYLQKPGQSPQLLIYKVTNRFSGVPDRFSGSGSGTDFTLKISRVEAEDVGVYYCFQGSHVPYTFGQGTKLEIKR
notes: Humanized, human IgG4/kappa; also called huBSG11F2B7G5E8-V3
B4: huC2C1A1A1-V4 (antibody, human IgG4 S228P, kappa, V domains shown)
VH: EVQLVESGGGLVQPGGSLRLSCAASGFTFSTYGMSWVRQAPGKGLVWVSTINSNGGSTSYPDSVKGRFTISRDNAKNTLYLQMNSLRAEDTAVYYCARFFRFRNAMDYWGQGTLVTVSS
VL: DIQMTQSPSSLSASVGDRVTITCRTSENIYSYLAWYQQKPGKAPKFLIYNAKTLAEGVPSRFSGSGSGTDFTLTISSLQPEDFATYYCQHYYGPPTWTFGQGTKVEIKR
notes: Humanized, human IgG4/kappa
B5: huC2C1A1A1-V6 (antibody, human IgG4 S228P, kappa, V domains shown)
VH: EVQLVESGGGLVQPGGSLRLSCAASGFTFSTYGMSWVRQSPDKRLEWVSTINSNGGSTSYPDSVKGRFTISRDNAKNTLYLQMRSLRAEDTAVYYCARFFRFRNAMDYWGQGTLVTVSS
VL: DIQMTQSPSSLSASVGQRVTITCRTSENIYSYLAWYQQKQGKPPRFLIYNAKTLAEGVPSRFSGSGSGTEFTLTITSLQAEDFGVYYCQHYYGPPTWTFGPGTKLEIKR
notes: Humanized, human IgG4/kappa
B6: huC2C1A1A1-V10 (antibody, human IgG4 S228P, kappa, V domains shown)
VH: EVQLVESGGGLVQPGGSLRLSCAASGFTFSTYGMSWVRQAPGKGLVLVATINSNGGSTSYPDSVKGRFTISRDNAKNTLYLQMNSLRAEDTAVYYCARFFRFRNAMDYWGQGTLVTVSS
VL: DIQMTQSPSSLSASVGQRVTITCRTSENIYSYLAWYQQKQGKPPRFLIYNAKTLAEGVPSRFSGSGSGTEFTLTITSLQAEDFGVYYCQHYYGPPTWTFGPGTKLEIKR
notes: Humanized, human IgG4/kappa
B7: huC2C1A1A1-V8 (antibody, human IgG4 S228P, kappa, V domains shown)
VH: EVQLVESGGGLVQPGGSLRLSCAASGFTFSTYGMSWVRQSPDKRLEWVSTINSNGGSTSYPDSVKGRFTISRDNAKNTLYLQMRSLRAEDTAVYYCARFFRFRNAMDYWGQGTLVTVSS
VL: DIQMTQSPSSLSASVGDRVTITCRTSENIYSYLAWYQQKPGKAPKFLIYNAKTLAEGVPSRFSGSGSGTDFTLTISSLQPEDFATYYCQHYYGPPTWTFGQGTKVEIKR
notes: Humanized, human IgG4/kappa
B8: huC2C1A1A1-V12 (antibody, human IgG4 S228P, kappa, V domains shown)
VH: EVQLVESGGGLVQPGGSLRLSCAASGFTFSTYGMSWVRQAPGKGLVLVATINSNGGSTSYPDSVKGRFTISRDNAKNTLYLQMNSLRAEDTAVYYCARFFRFRNAMDYWGQGTLVTVSS
VL: DIQMTQSPSSLSASVGDRVTITCRTSENIYSYLAWYQQKPGKAPKFLIYNAKTLAEGVPSRFSGSGSGTDFTLTISSLQPEDFATYYCQHYYGPPTWTFGQGTKVEIKR
notes: Humanized, human IgG4/kappa
B9: huC2C1A1A1-V3 (antibody, human IgG4, V domains shown)
VH: EVQLVESGGGLVQPGGSLRLSCAASGFTFSTYGMSWVRQAPGKGLVWVSTINSNGGSTSYPDSVKGRFTISRDNAKNTLYLQMNSLRAEDTAVYYCARFFRFRNAMDYWGQGTLVTVSS
VL: DIQMTQSPSSLSASVGDRVTITCRTSENIYSYLAWYQQKPGKAPKFLVYNAKTLAEGVPSRFSGSGSGTDFTLTISSLQPEDFATYYCQHYYGPPTWTFGQGTKVEIKR
notes: Humanized, human IgG4/kappa
B10: huC2C1A1A1-V11 (antibody, human IgG4, V domains shown)
VH: EVQLVESGGGLVQPGGSLRLSCAASGFTFSTYGMSWVRQAPGKGLVLVATINSNGGSTSYPDSVKGRFTISRDNAKNTLYLQMNSLRAEDTAVYYCARFFRFRNAMDYWGQGTLVTVSS
VL: DIQMTQSPSSLSASVGDRVTITCRTSENIYSYLAWYQQKPGKAPKFLVYNAKTLAEGVPSRFSGSGSGTDFTLTISSLQPEDFATYYCQHYYGPPTWTFGQGTKVEIKR
notes: Humanized, human IgG4/kappa
B11: huC2C1A1A1-V16 (antibody, human IgG4 S228P, kappa, V domains shown)
VH: EVQLVESGGGLVQPGGSLRLSCAASGFTFSTYGMSWVRQAPGKGLVWVATINSNGGSTSYPDSVKGRFTISRDNAKNTLYLQMNSLRAEDTAVYYCARFFRFRNAMDYWGQGTLVTVSS
VL: DIQMTQSPSSLSASVGDRVTITCRTSENIYSYLAWYQQKPGKAPKFLIYNAKTLAEGVPSRFSGSGSGTDFTLTISSLQPEDFATYYCQHYYGPPTWTFGQGTKVEIKR
notes: Humanized, human IgG4/kappa
B12: huC2C1A1A1-V1 (antibody, human IgG4 S228P, kappa, V domains shown)
VH: EVQLVESGGGLVQPGGSLRLSCAASGFTFSTYGMSWVRQAPGKGLVWVSTINSNGGSTSYPDSVKGRFTISRDNAKNTLYLQMNSLRAEDTAVYYCARFFRFRNAMDYWGQGTLVTVSS
VL: DIQMTQSPSSLSASVGDRVTITCRTSENIYSYLAWYQQKPGKAPKLLIYNAKTLAEGVPSRFSGSGSGTDFTLTISSLQPEDFATYYCQHYYGPPTWTFGQGTKVEIKR
notes: Humanized, human IgG4/kappa
B13: huC2C1A1A1-V7 (antibody, human IgG4, V domains shown)
VH: EVQLVESGGGLVQPGGSLRLSCAASGFTFSTYGMSWVRQSPDKRLEWVSTINSNGGSTSYPDSVKGRFTISRDNAKNTLYLQMRSLRAEDTAVYYCARFFRFRNAMDYWGQGTLVTVSS
VL: DIQMTQSPSSLSASVGDRVTITCRTSENIYSYLAWYQQKPGKAPKFLVYNAKTLAEGVPSRFSGSGSGTDFTLTISSLQPEDFATYYCQHYYGPPTWTFGQGTKVEIKR
notes: Humanized, human IgG4/kappa
B14: huC2C1A1A1-V13 (antibody, human IgG4 S228P, kappa, V domains shown)
VH: EVQLVESGGGLVQPGGSLRLSCAASGFTFSTYGMSWVRQAPGKGLVWVATINSNGGSTSYPDSVKGRFTISRDNAKNTLYLQMNSLRAEDTAVYYCARFFRFRNAMDYWGQGTLVTVSS
VL: DIQMTQSPSSLSASVGDRVTITCRTSENIYSYLAWYQQKPGKAPKLLIYNAKTLAEGVPSRFSGSGSGTDFTLTISSLQPEDFATYYCQHYYGPPTWTFGQGTKVEIKR
notes: Humanized, human IgG4/kappa
B15: huC2C1A1A1-V9 (antibody, human IgG4 S228P, kappa, V domains shown)
VH: EVQLVESGGGLVQPGGSLRLSCAASGFTFSTYGMSWVRQAPGKGLVLVATINSNGGSTSYPDSVKGRFTISRDNAKNTLYLQMNSLRAEDTAVYYCARFFRFRNAMDYWGQGTLVTVSS
VL: DIQMTQSPSSLSASVGDRVTITCRTSENIYSYLAWYQQKPGKAPKLLIYNAKTLAEGVPSRFSGSGSGTDFTLTISSLQPEDFATYYCQHYYGPPTWTFGQGTKVEIKR
notes: Humanized, human IgG4/kappa
B16: huC2C1A1A1-V5 (antibody, human IgG4 S228P, kappa, V domains shown)
VH: EVQLVESGGGLVQPGGSLRLSCAASGFTFSTYGMSWVRQSPDKRLEWVSTINSNGGSTSYPDSVKGRFTISRDNAKNTLYLQMRSLRAEDTAVYYCARFFRFRNAMDYWGQGTLVTVSS
VL: DIQMTQSPSSLSASVGDRVTITCRTSENIYSYLAWYQQKPGKAPKLLIYNAKTLAEGVPSRFSGSGSGTDFTLTISSLQPEDFATYYCQHYYGPPTWTFGQGTKVEIKR
notes: Humanized, human IgG4/kappa
B17: huC2C1A1A1-V2 (antibody, human IgG4 S228P, kappa, V domains shown)
VH: EVQLVESGGGLVQPGGSLRLSCAASGFTFSTYGMSWVRQAPGKGLVWVSTINSNGGSTSYPDSVKGRFTISRDNAKNTLYLQMNSLRAEDTAVYYCARFFRFRNAMDYWGQGTLVTVSS
VL: DIQMTQSPSSLSASVGQRVTITCRTSENIYSYLAWYQQKQGKPPRFLIYNAKTLAEGVPSRFSGSGSGTEFTLTITSLQAEDFGVYYCQHYYGPPTWTFGPGTKLEIKR
notes: Humanized, human IgG4/kappa

These binders were tested against T1, recombinant human IL4Rα-his protein (in house made) (human, UniProt P24394 26-232, limits assumed) (assay: SPR (Biacore), antibody captured, IL4Rα-his flowed).
T1 construct: also called Human IL4Ra-his
In the case of B1, the Kd is reported as 3730 pM, the koff is reported as 0.00208 s⁻¹ and the kon is reported as 557000 M⁻¹ s⁻¹. With B2 the Kd was 4130 pM, the koff was 0.00241 s⁻¹ and the kon was 584000 M⁻¹ s⁻¹. In the case of B3, the Kd is reported as 3570 pM, the koff is reported as 0.00199 s⁻¹ and the kon is reported as 558000 M⁻¹ s⁻¹.

Target: T1, recombinant human IL4Rα-his protein (in …)
Experiment: SPR (Biacore), antibody captured, IL4Rα-his flowed
Remark: another data set of the same source
B4 was tested, and the Dissociation % was 0.2%, the “End (RU)” value was 49.6 RU and the Kd was less than 22 pM. For the same binder, the “Start (RU)” value was 49.5 RU, the koff was less than 1e-05 s⁻¹ and the kon was 455000 M⁻¹ s⁻¹. For B5, the Dissociation % was -0.59%, the “End (RU)” value was 50.6 RU and the Kd was less than 26.1 pM. The “Start (RU)” value was 50.9 RU, the koff was less than 1e-05 s⁻¹ and the kon was 383000 M⁻¹ s⁻¹. B6 was tested, and the Dissociation % was -1.54%, the “End (RU)” value was 63.9 RU and the Kd was less than 30.4 pM. The “Start (RU)” value was 64.9 RU, the koff was less than 1e-05 s⁻¹ and the kon was 329000 M⁻¹ s⁻¹. B7 was tested, and the Dissociation % was -1.23%, the “End (RU)” value was 64.4 RU and the Kd was less than 36 pM. For the same binder, the “Start (RU)” value was 65.2 RU, the koff was less than 1e-05 s⁻¹ and the kon was 278000 M⁻¹ s⁻¹. For B8, the Dissociation % was -1.88%, the “End (RU)” value was 52.1 RU and the Kd was 47 pM. The “Start (RU)” value was 53.1 RU, the koff was 1.42e-05 s⁻¹ and the kon was 302000 M⁻¹ s⁻¹. With B9 the Dissociation % was -0.62%, the “End (RU)” value was 48.3 RU and the Kd was less than 38.9 pM. The “Start (RU)” value was 48.6 RU, the koff was less than 1e-05 s⁻¹ and the kon was 257000 M⁻¹ s⁻¹. With B10 the Dissociation % was -0.92%, the “End (RU)” value was 53.7 RU and the Kd was less than 30.3 pM. For the same binder, the “Start (RU)” value was 54.2 RU, the koff was less than 1e-05 s⁻¹ and the kon was 330000 M⁻¹ s⁻¹. In the case of B11, the Dissociation % is reported as -0.42%, the “End (RU)” value is reported as 47.1 RU and the Kd is reported as less than 33.8 pM. The “Start (RU)” value was 47.3 RU, the koff was less than 1e-05 s⁻¹ and the kon was 296000 M⁻¹ s⁻¹. With B12 the Dissociation % was 0.23%, the “End (RU)” value was 44 RU and the Kd was less than 77.3 pM. The “Start (RU)” value was 43.9 RU, the koff was less than 1e-05 s⁻¹ and the kon was 129000 M⁻¹ s⁻¹. B13 was tested, and the Dissociation % was -0.66%, the “End (RU)” value was 60.1 RU and the Kd was less than 38 pM. The “Start (RU)” value was 60.5 RU, the koff was less than 1e-05 s⁻¹ and the kon was 263000 M⁻¹ s⁻¹. B14 was tested, and the Dissociation % was 0.82%, the “End (RU)” value was 36.7 RU and the Kd was less than 83.8 pM. The “Start (RU)” value was 36.4 RU, the koff was less than 1e-05 s⁻¹ and the kon was 119000 M⁻¹ s⁻¹. With B15 the Dissociation % was -0.24%, the “End (RU)” value was 41.1 RU and the Kd was less than 50.7 pM. For the same binder, the “Start (RU)” value was 41.2 RU, the koff was less than 1e-05 s⁻¹ and the kon was 197000 M⁻¹ s⁻¹. B16 was tested, and the Dissociation % was -2.28%, the “End (RU)” value was 64.3 RU and the Kd was 28.3 pM. For the same binder, the “Start (RU)” value was 65.8 RU, the koff was 7.5e-05 s⁻¹ and the kon was 2.65e+06 M⁻¹ s⁻¹. With B17 the Dissociation % was -0.2%, the “End (RU)” value was 50.3 RU and the Kd was less than 44.2 pM. For the same binder, the “Start (RU)” value was 50.4 RU, the koff was less than 1e-05 s⁻¹ and the kon was 226000 M⁻¹ s⁻¹.
